Data on 2 molecules can be found in patent publication US20130217572A1, “SPECIFIC DELIVERY OF AGROCHEMICALS” (VRIJE UNIVERSITEIT BRUSSEL, priority 2010, published 2013).

Assay [1] has as its target T1, potato lectin (Sigma) (potato, UniProt Q9S8M0 23-323).
T1 construct: Bought glycoprotein, coated on ELISA plates
T1 sequence (looked up): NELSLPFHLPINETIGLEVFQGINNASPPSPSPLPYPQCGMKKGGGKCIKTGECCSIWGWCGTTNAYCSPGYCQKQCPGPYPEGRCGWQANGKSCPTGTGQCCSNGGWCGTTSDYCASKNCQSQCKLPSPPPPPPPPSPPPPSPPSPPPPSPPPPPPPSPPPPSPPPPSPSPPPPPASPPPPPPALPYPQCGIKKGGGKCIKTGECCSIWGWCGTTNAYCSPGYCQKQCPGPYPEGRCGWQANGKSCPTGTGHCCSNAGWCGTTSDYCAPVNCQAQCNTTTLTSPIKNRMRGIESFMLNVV
The assay is described as follows: microcapsule retention; H: amine capsules, BS3 one-step, 0.1 ug VHH/cm2; potato lectin coat 1 ug/ml; 10% coverage.

Assay [2] addresses T1, potato lectin (Sigma). The assay is described as follows: microcapsule retention; H: amine capsules, BS3 one-step, 0.1 ug VHH/cm2; potato lectin coat 10 ug/ml; 10% coverage.
Assay [3] addresses T1, potato lectin (Sigma). The assay is described as follows: microcapsule retention; H: amine capsules, BS3 one-step, 0.1 ug VHH/cm2; potato lectin coat 100 ug/ml; 100% coverage.
In another assay the test system is potato leaf surface. Kind of assay: VHH binding to leaf discs (microscopy). The arrangement: species or system potato (variety Désirée). Particulars: 5 μg/ml in PBS, anti-histidine Alexa-488 detection. On the procedure:
VHH binding to non-fixed leaf discs of potato (variety Désirée), black nightshade, grass, wheat or azalea was investigated. For comparison, binding of CBM3a to non-fixed leaf discs of potato (variety Désirée) was analyzed in parallel. Leaf discs were prepared by punching a fresh potato leaf with a 5 mm belt hole puncher tool. Leaf discs were put immediately in wells of a 96-well plate containing 200 μl per well 5% MPBS or PBS, and incubated for 30 minutes. Leaf discs were transferred to solutions containing 5 μg/ml VHH antibody fragment, respectively 5 μg/ml CBM3a in 2% MPBS or PBS and incubated for 60-90 minutes. Unbound VHH or CBM3a proteins were removed by washing three times with 2% MPBS or PBS. Bound VHH or CBM3a proteins were detected with incubation with monoclonal mouse anti-histidine antibodies directly conjugated with Alexa-488 fluorescent dye (Abd Serotec) in 1% MPBS for 1 hour. Unbound antibodies were removed by washing three times with PBS. Leaf discs were put on glass slides, covered with cover slips, and analyzed by microscopy or on a macrozoom microscope system (Nikon) or a SP5 confocal microscope system (Leica).

With Control VHH, the microcapsule counts (microcapsules) came out at 36 with potato lectin (Sigma) [1], 215 in the assay with potato lectin (Sigma) [2] and 622 in the assay with potato lectin (Sigma) [3].

B1: VHH 3E6 (VHH)
VHH: QVQLQESGGGLVQPGGTLSLSCAASGFNVRWYGMGWFRQAPGKEREGVACISALQETTAYADSVKGRFTLSRDNPKNTLSLQMNNLQPEDTGVYYCATTDCDDSSRMTYTSYLGQGTQVTVSS
notes: also called Monovalent VHH 3E6
As to B1, the “binding to native potato leaf surface” value in the assay on potato leaf surface is “binding leaf surface, stomata, glandular trichomes, and leaf hairs”; with potato leaf surface (listed as 3E6), “clearly binding to trichomes, stomata and cuticle”.
